By Kd is commonly meant a measure of binding affinity in units of concentration. A high value points to weaker binding. Broadly, the EC50 is the concentration that produces a half-maximal response. Low values mean an effect from little substance, high ones a need for much substance.

The results in this text go back to US20200222503A1 (published 2020).

One test concerns the target mCD40L-Fc. Nature of the test: SPR. A general note: SPR reads the build-up and loss of mass on a sensor chip optically.
For test [1], the target named is T1, murine OX40 on CHOK1 cells (murine, UniProt P47741 20-272).
T1 chain: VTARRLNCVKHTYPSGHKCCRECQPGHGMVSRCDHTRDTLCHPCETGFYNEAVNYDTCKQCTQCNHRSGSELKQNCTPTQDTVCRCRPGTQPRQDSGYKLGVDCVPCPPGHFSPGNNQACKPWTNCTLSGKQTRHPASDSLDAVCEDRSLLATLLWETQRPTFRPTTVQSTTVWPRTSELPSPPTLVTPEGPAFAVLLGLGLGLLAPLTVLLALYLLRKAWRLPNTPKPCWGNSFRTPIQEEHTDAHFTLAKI
Nature of the test: flow cytometry cell binding.

Test [2] deals with T2, murine PD-L2 on CHOK1 cells (murine, UniProt Q9WUL5 20-247).
T2 chain: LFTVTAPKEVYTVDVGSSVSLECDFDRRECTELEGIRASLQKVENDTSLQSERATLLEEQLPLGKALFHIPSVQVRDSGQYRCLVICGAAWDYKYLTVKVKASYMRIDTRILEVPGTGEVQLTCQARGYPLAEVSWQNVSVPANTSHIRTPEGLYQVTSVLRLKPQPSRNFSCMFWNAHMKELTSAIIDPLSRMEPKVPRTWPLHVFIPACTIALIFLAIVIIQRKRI
Nature of the test: flow cytometry cell binding.

The target in test [3] is murine PD-L1 on CHOK1 cells (murine, UniProt Q9EP73 19-290). Nature of the test: flow.
murine PD-L1 on CHOK1 cells, sequence (Q9EP73 19-290): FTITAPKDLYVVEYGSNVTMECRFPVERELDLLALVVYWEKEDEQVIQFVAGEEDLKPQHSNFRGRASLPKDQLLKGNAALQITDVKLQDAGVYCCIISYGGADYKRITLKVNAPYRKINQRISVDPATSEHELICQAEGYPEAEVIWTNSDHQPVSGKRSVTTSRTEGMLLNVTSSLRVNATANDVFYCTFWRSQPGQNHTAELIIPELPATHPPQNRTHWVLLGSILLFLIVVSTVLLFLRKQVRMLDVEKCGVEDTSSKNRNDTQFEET

B1: mCD40 (receptor)
chain: VTCSDKQYLHDGQCCDLCQPGSRLTSHCTALEKTQCHPCDSGEFSAQWNREIRCHQHRHCEPNQGLRVKKEGTAESDTVCTCKEGQHCTSKDCEACAQHTPCIPGFGVMEMATETTDTVCHPCPVGFFSNQSSLFEKCYPWTSCEDKNLEVLQKGTSQTNVICGLKSRMR
B1 returned an equilibrium dissociation constant (Kd) with mCD40L-Fc of 3.23 nM.

B2: murine PD-1-Fc-OX40L chimeric protein (Fc fusion)
chain: LEVPNGPWRSLTFYPAWLTVSEGANATFTCSLSNWSEDLMLNWNRLSPSNQTEKQAAFCNGLSQPVQDARFQIIQLPNRHDFHMNILDTRRNDSGIYLCGAISLHPKAKIEESPGAELVVTERILETSTRYPSPSPKPEGRFQGMSSSPAKDPPIQRLRGAVTRCEDGQLFISSYKNEYQTMEVQNNSVVIKCDGLYIIYLKGSFFQEVKIDLHFREDHNPISIPMLNDGRRIVFTVVASLAFKDKVYLTVNAPDTLCEHLQINDGELIVVQLTPGYCAPEGSYHSTVNQVPL
On to B2, for which the results for the concentration giving a half-maximal response (EC50) in test [1], in test [2] and in test [3] were 6.28 nM, 47.7 nM and 27.8 nM, respectively.
